Data published in the RNAGym collection of RNA variant scans (doi:10.1073/pnas.2313332121).
Variants at the floor of the assay were thinned out.

B1: TPR 5TU (parent)
chain: GGAUCUUCUCGAUCUAACAAAAAAGACAAAUCUGCCACAAAGCUUGAGAGCAUCUUCGGAUGCAGAGGCGGCAGCCUUCGGUGGCGCGAUAGCGCCAACGUUCUCAACUAUGACACGCAAAACGCGUGCUCCGUUGAAUGGAGUUUAUCAUG

Variants of: B1
Experiment: polymerase ribozyme fitness, log enrichment relative to wild type (log ratio); higher = more active; in vitro selection for triplet polymerase activity
Procedure, shortened: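 One round of in vitro selection, in triplicate, was applied to PCR-built, transcribed mutant libraries of each subunit of a heterodimeric triplet polymerase ribozyme. The steps were annealing with a biotinylated primer, partner subunit and triplets, incubation frozen at −7 °C, gel excision of extended constructs, streptavidin-bead capture and RT-PCR. Fitness is the logarithm, base 2, of genotype enrichment over wild-type enrichment from inverse-variance-weighted replicate averages of Illumina-sequenced inputs and outputs, keeping genotypes with ≥10 input reads and ≥1 read per output.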

Compared with G34A A120C, U33A A52G A60U G84A C95G U109G A115U G133U G140C U146G is lower in “polymerase ribozyme fitness (log ratio)” value: 0.113 for the first, no more than -4.2 for the second.

A30U G88C G92U C95A and C32U U56A A91U A113U C118A G143C C149U cannot be ordered by “polymerase ribozyme fitness (log ratio)” value: no more than -4.2 for the first, no more than -4.2 for the second.

A30C C87G C99G C132A G140U and C32G U55A C79A C116G C149A cannot be ordered by “polymerase ribozyme fitness (log ratio)” value: no more than -4.2 for the first, no more than -4.2 for the second.

C32G A39C A41C A52U G94C C116G and C32G G59C C96A U144A cannot be ordered by “polymerase ribozyme fitness (log ratio)” value: no more than -4.2 for the first, no more than -4.2 for the second.

A30G C76A C95A and G34A C85U A147C U148G G152U cannot be ordered by “polymerase ribozyme fitness (log ratio)” value: no more than -4.2 for the first, no more than -4.2 for the second.

First: C32A G67A G83A
Second: C32G C87U
The “polymerase ribozyme fitness (log ratio)” value of the first is lower: no more than -4.2 for the first, -3.63 for the second.

Compared with U33C C85U A119G, U31A C93U is higher in “polymerase ribozyme fitness (log ratio)” value: -3.71 for the first, 0.0654 for the second.

A30G G50U U55G U82A and U33G A39G G62U G92A A122U U134A cannot be ordered by “polymerase ribozyme fitness (log ratio)” value: no more than -4.2 for the first, no more than -4.2 for the second.

First: A30U U55G C63U A110U G126U
Second: U33A G50A A64C G83C
The “polymerase ribozyme fitness (log ratio)” value of the first is higher: -4.07 for the first, no more than -4.2 for the second.

Compared with A30G A41C, U31C G143A is higher in “polymerase ribozyme fitness (log ratio)” value: -3.51 for the first, 0.14 for the second.

A30G G42A C96G G100A U139C U148C and G34C A52G G84A U109A C125U cannot be ordered by “polymerase ribozyme fitness (log ratio)” value: no more than -4.2 for the first, no more than -4.2 for the second.

A30U U77G G84U C129G G152C and A30U C75G G84U C103G G124C cannot be ordered by “polymerase ribozyme fitness (log ratio)” value: no more than -4.2 for the first, no more than -4.2 for the second.

A30G C79U G124U U135A and U33A G50A U53A C85G C96G A97U C114G U139A cannot be ordered by “polymerase ribozyme fitness (log ratio)” value: no more than -4.2 for the first, no more than -4.2 for the second.

A30G C38A C57A G58C U78G A97G U101C U102G and U33A U45A G68U C87A U127C A137U cannot be ordered by “polymerase ribozyme fitness (log ratio)” value: no more than -4.2 for the first, no more than -4.2 for the second.

Going from U31G G50U U56G to A30G C75G C93U A121G, the “polymerase ribozyme fitness (log ratio)” value falls from -1.97 to no more than -4.2.

U31A U55A C95U G128U A137C G143U and A30U A73U A98U U135G cannot be ordered by “polymerase ribozyme fitness (log ratio)” value: no more than -4.2 for the first, no more than -4.2 for the second.

C32A C51G C72U C85G A97C U101G and G34C U45A G50C A52C U53A C76A G81A G92A C105G cannot be ordered by “polymerase ribozyme fitness (log ratio)” value: no more than -4.2 for the first, no more than -4.2 for the second.

Going from U33G C35U G59U C75G G128A U139A to U31G A37C U61A G126C U145C, the “polymerase ribozyme fitness (log ratio)” value falls from -4.05 to no more than -4.2.

Going from U33A C72U A73G G124U to U33C A41C, the “polymerase ribozyme fitness (log ratio)” value falls from -3.23 to -3.48.

Going from U31C U45A A97U G117A to U31C C93G, the “polymerase ribozyme fitness (log ratio)” value rises from -4.09 to -3.06.

Going from U31G G83A A138G to U33G G50U U90G C96G, the “polymerase ribozyme fitness (log ratio)” value rises from no more than -4.2 to -3.98.

U33G U56A C69U C87G U101C and U31G C57G G88U cannot be ordered by “polymerase ribozyme fitness (log ratio)” value: no more than -4.2 for the first, no more than -4.2 for the second.

Compared with U31G A52C G83A, G34A U55A is higher in “polymerase ribozyme fitness (log ratio)” value: -2.81 for the first, -2.46 for the second.

C32U U45A C54A G84A C85A G92A C93A and U33A A60C G74A A137C A150U cannot be ordered by “polymerase ribozyme fitness (log ratio)” value: no more than -4.2 for the first, no more than -4.2 for the second.

First: U31A C96U C99A
Second: U31A A66C G67C G88A G141A U146G
The “polymerase ribozyme fitness (log ratio)” value of the first is higher: -1.23 for the first, no more than -4.2 for the second.

Going from C32G A49C U53A C85U G86U C99A A138G A150G to U31C C95A C96A U134C G143A U145G, the “polymerase ribozyme fitness (log ratio)” value rises from -4.03 to -3.45.

Going from A30G C32A C43A C93A C105A to U31C A98U U134A, the “polymerase ribozyme fitness (log ratio)” value rises from no more than -4.2 to -1.41.

First: U31C C36G U56A G70C G94A C129G
Second: C32U G59C A89C G94C
The “polymerase ribozyme fitness (log ratio)” value of the first is higher: -3 for the first, -3.87 for the second.

First: U31C G71A G86C C118A U151G
Second: U31C C57A G83U C118U G124U A142C
The “polymerase ribozyme fitness (log ratio)” value of the first is lower: no more than -4.2 for the first, -2.24 for the second.

U31G A39G U55A A66C G68C C69U G117A and A30U G42U A119G A138G cannot be ordered by “polymerase ribozyme fitness (log ratio)” value: no more than -4.2 for the first, no more than -4.2 for the second.

U33G G65A G70C C108U and C32U A49C A52G G58U G62C C131G cannot be ordered by “polymerase ribozyme fitness (log ratio)” value: no more than -4.2 for the first, no more than -4.2 for the second.

Going from U33G G50C U56A U134G U145C to A30U G94C A150U, the “polymerase ribozyme fitness (log ratio)” value rises from no more than -4.2 to -3.55.

C32U A37U U56C C95U U145G U148G and C32U A37G G46U U77C G86C A115G A119U cannot be ordered by “polymerase ribozyme fitness (log ratio)” value: no more than -4.2 for the first, no more than -4.2 for the second.

First: C32A C54U C93A A110G A137G G140C
Second: G34C A39G A49C A97U
The “polymerase ribozyme fitness (log ratio)” value of the first is higher: -4.17 for the first, no more than -4.2 for the second.

U33C C36U C54A C72U G84U C85A U148G and U33A C38G A52U C87G G136A cannot be ordered by “polymerase ribozyme fitness (log ratio)” value: no more than -4.2 for the first, no more than -4.2 for the second.

Compared with U31C G83C U111C G152A, A30U C69G C79A C87G G126A G140C is lower in “polymerase ribozyme fitness (log ratio)” value: -3.66 for the first, no more than -4.2 for the second.

Compared with A30G G46C G50U C57U C118G, U31A A40G U44G G141C is higher in “polymerase ribozyme fitness (log ratio)” value: no more than -4.2 for the first, -4.06 for the second.

G34A C85A G133A and U31A C93G C95U C96A A113G cannot be ordered by “polymerase ribozyme fitness (log ratio)” value: no more than -4.2 for the first, no more than -4.2 for the second.

First: U31C C93U C131U
Second: U31A A39G G94U
The “polymerase ribozyme fitness (log ratio)” value of the first is higher: 1.12 for the first, -2.07 for the second.

U31G C43G U53A G83U and C32G G59C U61A U82A G84U U134G G140C cannot be ordered by “polymerase ribozyme fitness (log ratio)” value: no more than -4.2 for the first, no more than -4.2 for the second.

Going from U33G A52G U130G C131U G133U U146A to U31A, the “polymerase ribozyme fitness (log ratio)” value rises from no more than -4.2 to 0.37.

In the case of U31G, the “polymerase ribozyme fitness (log ratio)” value is reported as 0.749.
